Measurements taken from patent US20170174733A1 (Genentech, published 2017).

Tests used:
VEGF109 [1] = molecular target: T1, VEGF109 (UniProt P15692 214-315, biotinylated where loaded on streptavidin tips); assay: phage ELISA, 5 ug/ml VEGF coated on 384-well Maxisorp, OD 450 nm
T1 construct: range 8-109; also called VEGF8-109; biotinylated VEGF109
T1 sequence: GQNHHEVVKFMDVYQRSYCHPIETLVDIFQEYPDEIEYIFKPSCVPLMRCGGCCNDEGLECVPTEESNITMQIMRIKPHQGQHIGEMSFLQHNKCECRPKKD

human VEGF [2] = molecular target: T2, human VEGF (human, UniProt P15692 27-191); assay: cell-based or functional assay
human VEGF [3] = molecular target: T2, human VEGF; assay: cell-based or functional assay; remark: listed apart in the source
VEGF109 [4] = molecular target: T1, VEGF109; assay: phage spot ELISA on VEGF with the phage-displayed clone 37, as told by the legend and paragraph 367; the sheet draws sequences only, no signals
[5] = molecular target: T3, LRP6 E1E2 with a C-terminal Avi-tag and His6-tag (human, UniProt O75581 20-630, biotinylated (Avi-tag) where loaded on streptavidin tips; unlabeled where in solution); assay: BLI (OctetRED384): Strep-tagged variant captured by StrepMAB-Immo on AMC tips, LRP6-E1E2 in solution
T3 construct: domain: E1E2; also called LRP6 receptor fragment E1E2; biotinylated LRP6-E1E2; not shown: C-terminal Avi-tag and His6-tag
T3 sequence: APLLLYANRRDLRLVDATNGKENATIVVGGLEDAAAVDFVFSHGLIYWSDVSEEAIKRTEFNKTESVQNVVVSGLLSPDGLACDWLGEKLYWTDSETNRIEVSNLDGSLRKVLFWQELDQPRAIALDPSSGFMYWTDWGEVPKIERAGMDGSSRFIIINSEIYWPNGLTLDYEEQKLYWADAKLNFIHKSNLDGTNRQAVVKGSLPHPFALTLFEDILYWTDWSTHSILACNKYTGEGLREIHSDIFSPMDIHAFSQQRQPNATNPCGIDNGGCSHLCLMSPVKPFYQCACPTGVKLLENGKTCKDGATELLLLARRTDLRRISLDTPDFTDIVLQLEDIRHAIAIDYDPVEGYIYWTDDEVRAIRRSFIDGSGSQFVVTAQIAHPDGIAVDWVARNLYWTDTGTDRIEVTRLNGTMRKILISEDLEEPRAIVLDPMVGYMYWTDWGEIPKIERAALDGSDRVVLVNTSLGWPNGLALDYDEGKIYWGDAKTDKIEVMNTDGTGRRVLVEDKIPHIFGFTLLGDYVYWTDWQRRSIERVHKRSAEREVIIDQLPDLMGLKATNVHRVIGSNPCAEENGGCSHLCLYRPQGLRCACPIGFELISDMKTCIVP

papain = molecular target: T4, papain (UniProt P00784 134-345); assay: phage ELISA on coated papain, 2-fold phage dilutions, anti-M13-HRP detection, OD 450 nm
T4 construct: Coated on ELISA plates
T4 sequence: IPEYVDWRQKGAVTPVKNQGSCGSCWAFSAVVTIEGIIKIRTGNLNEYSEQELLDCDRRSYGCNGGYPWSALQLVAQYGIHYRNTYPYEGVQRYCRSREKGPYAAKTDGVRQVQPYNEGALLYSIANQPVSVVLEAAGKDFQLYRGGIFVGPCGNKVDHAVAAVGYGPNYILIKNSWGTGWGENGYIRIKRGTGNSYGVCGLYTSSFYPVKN

BSA = BSA (UniProt P02769 25-607); assay: phage ELISA on BSA as control, 2-fold phage dilutions, anti-M13-HRP detection, OD 450 nm
[6] = molecular target: anti-gD antibody (Genentech, Inc.); assay: phage ELISA on coated anti-gD antibody, 2-fold phage dilutions, anti-M13-HRP detection, OD 450 nm
VEGF109 [7] = molecular target: T1, VEGF109; assay: BLI (Octet) on VEGF109
Experimental: Binding affinities of chagasin variants for the targets LRP6 and VEGF109 were measured using the OctetRED384 (ForteBio). All washes, dilutions and measurements were performed in PBS-based kinetics buffer (ForteBio) with the plate shaking at 1000 rpm. Streptavidin biosensors (SA tips, ForteBio) were equilibrated in kinetics buffer for 5 min and then loaded with either biotinylated LRP6-E1E2 or biotinylated VEGF109 (20 μg/ml) to a density of 2 nm signal difference, followed by a 3 min washing step. […] Dissociation of the chagasin variant-target complex was measured in wells containing kinetics buffer alone for up to 30 min. Sensorgrams with ligand-loaded SA tips going through wells containing only buffer in both association and dissociation measurement were used as reference for background subtraction. Kd, kₐ and kd were determined using the Octet evaluation software v7.0.1.3. using a 1:1 binding model with global fitting. Alternatively, AMC-biosensors (Fortebio) were loaded with StrepMAB-Immo (IBA GmbH) to saturation and subsequently used to capture Strep-tag II containing chagasin variants to saturation. After 5 min of washing in kinetics buffer, binding kinetics to unlabeled LRP6-E1E2 fragment was determined essentially as described above.

LRP6 on HEK293S cells = LRP6 on HEK293S cells (human, UniProt O75581 20-1613); assay: cell-based or functional assay
[8] = molecular target: T3, LRP6 E1E2 with a C-terminal Avi-tag and …; assay: BLI (OctetRED384), monomeric variant

T2 sequence (P15692 other isoform, or with tags, fused parts or gaps limits assumed): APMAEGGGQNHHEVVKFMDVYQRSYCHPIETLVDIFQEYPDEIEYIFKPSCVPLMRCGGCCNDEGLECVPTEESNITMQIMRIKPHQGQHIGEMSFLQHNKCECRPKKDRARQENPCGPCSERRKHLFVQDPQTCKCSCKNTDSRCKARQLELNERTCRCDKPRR
BSA, sequence (P02769 25-607 limits assumed): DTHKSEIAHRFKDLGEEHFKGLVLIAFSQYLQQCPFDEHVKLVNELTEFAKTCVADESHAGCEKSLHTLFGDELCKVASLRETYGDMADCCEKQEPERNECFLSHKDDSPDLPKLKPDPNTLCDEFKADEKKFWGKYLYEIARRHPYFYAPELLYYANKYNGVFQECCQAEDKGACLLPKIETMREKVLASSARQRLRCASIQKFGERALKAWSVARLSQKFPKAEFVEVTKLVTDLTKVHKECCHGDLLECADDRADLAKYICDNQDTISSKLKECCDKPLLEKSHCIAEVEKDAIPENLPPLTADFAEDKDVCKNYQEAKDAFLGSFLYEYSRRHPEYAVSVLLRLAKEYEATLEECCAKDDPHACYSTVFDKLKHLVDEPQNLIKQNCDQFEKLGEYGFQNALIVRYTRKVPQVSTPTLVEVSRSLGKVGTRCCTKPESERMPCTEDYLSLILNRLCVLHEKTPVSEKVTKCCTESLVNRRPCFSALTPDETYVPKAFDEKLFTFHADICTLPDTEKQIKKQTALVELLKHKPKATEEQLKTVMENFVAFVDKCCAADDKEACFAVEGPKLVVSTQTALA

B1: phage-displayed chagasin VEGF variant 4-66-F6 (designed binder)
chain: MADPNRFRGKDLGSLEMSHKVTKAHNGATLTVAVGELVEIQLPSNYFYDGFAWYFEGGTKESPNESMFTVENKYFPNDPGSRLSGAGGTEHFHVTVKAAGTHAVNLTYMAPWLGPSRVLERFTVYLKANGGSGGSGGS
notes: not shown: phage coat protein g3 (p3)
- EC50 (read off the curve) (VEGF109 [1]): ~0.007 OD 268 nM

B2: chagasin VEGF variant E4B-5 (designed binder)
chain: MSHKVTKAHNGATLTVAVGELVEIQLPSNYFYEGFAWYFEGGTKESPNESMFTVENKYFPNGPGLGVYGAGGTEHFHVTVKAAGTHAVNLTYMAPWQGPSRELERFTVYLKAN
- Inhibitory Activity (IC50, nM) against hVEGF in cell-based assays (human VEGF [2]): 800 nM

B3: chagasin VEGF variant L4X8-9 (designed binder)
chain: MSHKVTKAHNGATLTVAVGELVEIQLPSNYFYDGFAWYFEGGTKESPNESMFTVENKYFPSGSYMSYSGAGGTEHFHVTVKAAGTHAVNLTYMAPWLGPSRDLERFTVYLKAN
- IC50, inhibition of VEGF-dependent signaling through the KDR receptor on cells (human VEGF [3]): 301 nM
- fold improvement of IC50 over the parental chagasin variant 4 (human VEGF [3]): 2 fold
- Inhibitory Activity (IC50, nM) against hVEGF in cell-based assays (human VEGF [2]): 300 nM

B4: chagasin VEGF variant E4B-7 (designed binder)
chain: MSHKVTKAHNGATLTVAVGELVEIQLPSNYYYDGFAWYFEGGTKESPNESMFTVENKYFPNVNGSHAWGAGGTEHFHVTVKAAGTHAVNLTYMAPWSGPSRFLERFTVYLKAN
- Inhibitory Activity (IC50, nM) against hVEGF in cell-based assays (human VEGF [2]): 550 nM

B5: chagasin VEGF variant E4B-10 (designed binder)
chain: MSHKVTKAHNGATLTVAVGELVEIQLPSNYFYDGFAWYFEGGTKESPNESMFTVENKYFPDDPGSGLWGAGGTEHFHVTVKAAGTHAVNLTYMAPWSGPSRYLERFTVYLKAN
- Inhibitory Activity (IC50, nM) against hVEGF in cell-based assays (human VEGF [2]): 610 nM

B6: dimeric chagasin VEGF variant 37 (designed binder)
chain: MSHKVTKAHNGATLTVAVGELVEIQLPSNYFCDGFAWYFEGGTKESPNESMFTVENKYFPNYPGSGVLGAGGTEHFHVTVKAAGTHAVNLTYMAPWFGPSRVLERFTVYLKAN
notes: also called clone 37
- binding result (VEGF109 [4]): binds

B7: chagasin LRP6 variant H (designed binder)
chain: MSHKVTKAHNGATLTVAVGELVEIQLPSNPTTGFAWYFEGGTKESPNESMFTVENKYFPYNNIRGLPGFGAGGTEHFHVTVKAAGTHAVNLTYMRPWTGPSHDSERFTVYLKANSAWSHPQFEK
- Kd [5]: 6 nM

B8: chagasin VEGF variant L4X6-3 (designed binder)
chain: MSHKVTKAHNGATLTVAVGELVEIQLPSNYFNDGFAWYFEGGTKESPNESMFTVENKYFPGSSYWGGAGGTEHFHVTVKAAGTHAVNLTYMAPWAGPSRVLERFTVYLKAN
- Inhibitory Activity (IC50, nM) against hVEGF in cell-based assays (human VEGF [2]): 710 nM

B9: phage-displayed chagasin VEGF variant 3-65-F5 (designed binder)
chain: MADPNRFRGKDLGSLEMSHKVTKAHNGATLTVAVGELVEIQLPSNYRDSGFAWYFEGGTKESPNESMFTVENKYFPVRAGQANEGAGGTEHFHVTVKAAGTHAVNLTYMSPVLGPRFWLERFTVYLKANGGSGGSGGS
notes: as for B1
- EC50 (read off the curve) (VEGF109 [1]): ~0.004 OD 268 nM

B10: chagasin LRP6 variant S (designed binder)
chain: MSHKVTKAHNGATLTVAVGELVEIQLPSNPADGFAWYFEGGTKESPNESMFTVENKYFPSNYTKHGAGGTEHFHVTVKAAGTHAVNLTYMPREKGSSLVMERFTVYLKANSAWSHPQFEK
- Kd [5]: 70 nM

B11: phage-displayed gD-tagged wild-type chagasin fused to phage coat protein p3 (other)
chain: MADPNRFRGKDLGSLEMSHKVTKAHNGATLTVAVGELVEIQLPSNPTTGFAWYFEGGTKESPNESMFTVENKYFPPDSKLLGAGGTEHFHVTVKAAGTHAVNLTYMRPWTGPSHDSERFTVYLKANGGSGGSGGS
notes: also called chagasin wild-type (wt); p3-fusion display; not shown: phage coat protein g3 (p3)
- EC50 (read off the curve) (papain): ~0.04 OD 268 nM
- binding result (BSA): no binding (tested: 0.5 OD 268 nm)
- EC50 (read off the curve) [6]: ~0.01 OD 268 nM

B12: phage-displayed gD-tagged wild-type chagasin fused to phage coat protein p8 (other)
chain: MADPNRFRGKDLGSLEMSHKVTKAHNGATLTVAVGELVEIQLPSNPTTGFAWYFEGGTKESPNESMFTVENKYFPPDSKLLGAGGTEHFHVTVKAAGTHAVNLTYMRPWTGPSHDSERFTVYLKANGGSGGSGGS
notes: also called chagasin wild-type (wt); p8-fusion display; not shown: phage coat protein g8 (p8)
- EC50 (read off the curve) (papain): ~0.04 OD 268 nM
- binding result (BSA): no binding (tested: 0.5 OD 268 nm)
- EC50 (read off the curve) [6]: ~0.02 OD 268 nM

B13: chagasin VEGF binder Variant 66-L2-K (designed binder)
chain: MSHKVTKAHNGATLTVAVGELVEIQLPSNYYKDGFAWYFEGGTKESPNESMFTVENKYFPHYYNLGGRYTGAGGTEHFHVTVKAAGTHAVNLTYMGPWLGPSRVLERFTVYLKAN
- Kd (VEGF109 [7]): 61 nM

B14: chagasin VEGF binder Variant 66-L4-T (designed binder)
chain: MSHKVTKAHNGATLTVAVGELVEIQLPSNYYYDGFAWYFEGGTKESPNESMFTVENKYFPHYTNLGGRYTGGAGTEHFHVTVKAAGTHAVNLTYMGPWLGPSRVLERFTVYLKAN
- Kd (VEGF109 [7]): 51 nM

B15: chagasin VEGF binder Variant 66-L4-S (designed binder)
chain: MSHKVTKAHNGATLTVAVGELVEIQLPSNYYYDGFAWYFEGGTKESPNESMFTVENKYFPHYSNLGGRYTGGAGTEHFHVTVKAAGTHAVNLTYMGPWLGPSRVLERFTVYLKAN
- Kd (VEGF109 [7]): 50 nM

B16: chagasin VEGF binder Variant 66-L4-Q (designed binder)
chain: MSHKVTKAHNGATLTVAVGELVEIQLPSNYYYDGFAWYFEGGTKESPNESMFTVENKYFPHYQNLGGRYTGAGGTEHFHVTVKAAGTHAVNLTYMGPWLGPSRVLERFTVYLKAN
- Kd (VEGF109 [7]): 80 nM

B17: chagasin LRP6 variant H15 (designed binder)
chain: MSHKVTKAHNGATLTVAVGELVEIQLPSNPTTGFAWYFEGGTKESPNESMFTVENKYFPSNKIKGIPGFGAGGTEHFHVTVKAAGTHAVNLTYMRPSTGPSDDSERFTVYLKAN
notes: also called clone H15
- IC50, inhibition of Wnt1 signaling (luciferase reporter, HEK293S cells transfected by WNT1) (LRP6 on HEK293S cells): 26 nM
- Kd [8]: 0.25 nM

B18: chagasin LRP6 variant S11 (designed binder)
chain: MSHKVTKAHNGATLTVAVGELVEIQLPSNVDGFAWYFEGGTKESPNESMFTVENKYFPSNSTKRGAGGTEHFHVTVKAAGTHAVNLTYMPRVKGAYLVMERFTVYLKAN
notes: also called clone S11
- IC50, inhibition of Wnt1 signaling (luciferase reporter, HEK293S cells transfected by WNT1) (LRP6 on HEK293S cells): 400 nM
- Kd [8]: 74 nM

B19: phage-displayed chagasin VEGF variant 5-44-D8 (designed binder)
chain: MADPNRFRGKDLGSLEMSHKVTKAHNGATLTVAVGELVEIQLPSNLRSMGFAWYFEGGTKESPNESMFTVENKYFPAGPSAVPLGAGGTEHFHVTVKAAGTHAVNLTYMAPWRGPANVIERFTVYLKANGGSGGSGGS
notes: as for B1
- EC50 (read off the curve) (VEGF109 [1]): ~0.003 OD 268 nM

B20: phage-displayed chagasin VEGF variant 2-40-D4 (designed binder)
chain: MADPNRFRGKDLGSLEMSHKVTKAHNGATLTVAVGELVEIQLPSNLQNAGFAWYFEGGTKESPNESMFTVENKYFPLSLYASETGAGGTEHFHVTVKAAGTHAVNLTYMNPNWGPDYWIERFTVYLKANGGSGGSGGS
notes: as for B1
- EC50 (read off the curve) (VEGF109 [1]): ~0.003 OD 268 nM

B21: phage-displayed chagasin VEGF variant 1-90-H6 (designed binder)
chain: MADPNRFRGKDLGSLEMSHKVTKAHNGATLTVAVGELVEIQLPSNLQDSGFAWYFEGGTKESPNESMFTVENKYFPSGTTGKSNGAGGTEHFHVTVKAAGTHAVNLTYMFKSRGLMVPLERFTVYLKANGGSGGSGGS
notes: as for B1
- EC50 (read off the curve) (VEGF109 [1]): ~0.006 OD 268 nM

B22: chagasin LRP6 variant P (designed binder)
chain: MSHKVTKAHNGATLTVAVGELVEIQLPSNPSCGFAWYFEGGTKESPNESMFTVENKYFPDSNEIWYCGAGGTEHFHVTVKAAGTHAVNLTYMSPYYGPTKVEERFTVYLKANSAWSHPQFEK
- Kd [5]: 150 nM
